# Positions count from the first letter of the chain named. In names and notes the source's numbering stands.
# B1: PICE with V263D mutation (enzyme)
# chain: GQPASPPVVDTAQGRVLGKYVSLEGLAQPVAVFLGVPFAKPPLGSLRFAPPQPAEPWSFVKNTTSYPPMCCQDPVAGQMTSDLFTNGKERLIPEFSEDCLYLNIYTPADLTKRGRLPVMVWIHGGGLVVGGASTYDGLALAAHENVVVVAIQYRLGIWGFFSTGDEHSRGNWGHLDQVAALHWVQENIANFGGDTGSVTIFGESAGGESVSVLVLSPLAKNLFHRAISESGVALTAGLVRKDMKAAAKQIAVLAGCKTTTSADFVHCLRQKSEDELLDLTLKMKFLTLDLHGDPRESHPFLPTVVDGVLLPKMPEEILAEKDFNTVPYIVGINKQEFGWLLPTMMGFPLSEGKLDQKTATSLLWKSFPITNIPEELTPVATDKYLGGTDDPVKKKDLFLDLMGDVVFGVPSVTVARQHRDAGAPTYMYEFQYRPSFSSDKKPKTVIGDHGDEIFSVFGFPLLKGDAPEEEVSLSKTVMKFWANFARSGNPNGEGLPHWPMYDQEEGYLQIGVNTQAAKRLKGEEVAFWNDLLSKEAAKKPPKIKHAEL
# notes: Monomeric mutant; also called PICE-V263D
# B2: PLE4 with V263D mutation (enzyme)
# chain: B1 chain with T195P, L234F, F285P, P302T, F367Y, T370A, F459A, L461F, K463R
# notes: Monomeric mutant; also called PLE4-V263D
# B3: PLE3 with V263D mutation (enzyme)
# chain: GQPASPPVVDTAQGRVLGKYVSLEGLAQPVAVFLGVPFAKPPLGSLRFAPPQPAEPWSFVKNTTSYPPMCCQEPIGGQMLSDLFTNRKERLIPEFSEDCLYLNIYTPADLTKRGRLPVMVWIHGGGLVVGGASTYDGLALAAHENVVVVAIQYRLGIWGFFSTGDEHSRGNWGHLDQVAALHWVQENIANFGGDPGSVTIFGESAGGESVSVLVLSPLAKNLFHRAISESGVAFTAGLVRKDMKAAAKQIAVLAGCKTTTSADFVHCLRQKSEDELLDLTLKMKPLTLDLHGDPRESHPFLTTVVDGVLLPKMPEEILAEKDFNTVPYIVGINKQEFGWLLPTMMGFPLSEGKLDQKTATSLLWKSYPIANIPEELTPVATDKYLGGTDDPVKKKDLFLDLMGDVVFGVPSVTVARQHRDAGAPTYMYEFQYRPSFSSDKKPKTVIGDHGDEIFSVFGFPLLKGDAPEEEVSLSKTVMKFWANFARSGNPNGEGLPHWPMYDQEEGYLQIGVNTQAAKRLKGEEVAFWNDLLSKEAAKKPPKIKHAEL
# notes: Monomeric mutant; also called PLE3-V263D
# B4: PLE5 with V263D mutation (enzyme)
# chain: B1 chain with T195P, L234F, L286F, T287A, P302T, F367Y, T370A, F459A, L461F, K463R
# notes: Monomeric mutant; also called PLE5-V263D
# B5: APLE with V263D mutation (enzyme)
# chain: B3 chain with P285F, L286F, T287A
# notes: Monomeric mutant, tested in E. coli cleared lysate; also called APLE-V263D; mutant, monomeric APLE
# B6: PLE2 with V263D mutation (enzyme)
# chain: GQPASPPVVDTAQGRVLGKYVSLEGLAQPVAVFLGVPFAKPPLGSLRFAPPQPAEPWSFVKNTTSYPPMCCQDPVVEQMTSDLFTNGKERLTLEFSEDCLYLNIYTPADLTKRGRLPVMVWIHGGGLVLGGAPMYDGVVLAAHENVVVVAIQYRLGIWGFFSTGDEHSRGNWGHLDQVAALHWVQENIANFGGDPGSVTIFGESAGGESVSVLVLSPLAKNLFHRAISESGVALTVALVRKDMKAAAKQIAVLAGCKTTTSADFVHCLRQKSEDELLDLTLKMKFLTLDFHGDQRESHPFLPTVVDGVLLPKMPEEILAEKDFNTVPYIVGINKQEFGWLLPTMMGFPLSEGKLDQKTATSLLWKSYPIANIPEELTPVATDKYLGGTDDPVKKKDLFLDLMGDVVFGVPSVTVARQHRDAGAPTYMYEFQYRPSFSSDKKPKTVIGDHGDEIFSVFGAPFLRGDAPEEEVSLSKTVMKFWANFARSGNPNGEGLPHWPMYDQEEGYLQIGVNTQAAKRLKGEEVAFWNDLLSKEAAKKPPKIKHAEL
# notes: Monomeric mutant; also called PLE2-V263D
# B7: γ-PLE with V263D mutation (enzyme)
# chain: B6 chain with A459F, F461L, R463K
# notes: Monomeric mutant; also called γPLE-V263D
# B8: APLE wild-type (enzyme)
# chain: B3 chain with D263V, P285F, L286F, T287A
# notes: Homotrimer on native gel; also called pig liver esterase
# B9: γPLE wild-type (enzyme)
# chain: B6 chain with D263V, A459F, F461L, R463K
# notes: Tested in E. coli cleared lysate; Homotrimer; also called gamma-PLE
# B10: APLE L43D variant (enzyme)
# chain: B3 chain with L43D, D263V, P285F, L286F, T287A
# Molecular target: the molecule itself
# Assay: blue native gel electrophoresis, self-association
# Procedure: Blue native gel electrophoresis (BN-PAGE) of bacterial lysates containing APLE was performed according to the method described by Reisinger and Eichacker (2006), “Analysis of membrane protein complexes by blue native PAGE”, Proteomics 6 Suppl 2, 6-15, with the following modifications. Aliquots containing 200 μg of soluble proteins were diluted with 10 mM Tris/HCl pH 7.4 to a final volume of 95 μl. Five μl of loading buffer was added to the sample before applying them on an 8-16% linear gradient gel. Gradient gels (16×20 cm) were created with the help of a Bio-Rad Gradient Former model 485 (Bio-Rad Laboratories, Vienna, Austria). Electrophoresis was performed at a constant current of 24 mA per gel at 4° C. After electrophoresis, gels were incubated in 0.1 M potassium phosphate buffer, pH 7.0, for 20 min at room temperature. For the in-gel-detection of esterase activity, the substrate fluorescein diacetate (FDA) was dissolved in acetone [4 mg/ml] and applied on a Biodyne® A membrane ([…], 16×20 cm) (Pall Life Science, Michigan, USA). After evaporation of acetone, the membrane was brought in close contact with the gel which was placed on a glass plate. The gel-membrane sandwich was incubated at 37° C. for 30 min before detection of fluorescent bands.
# Esterase activity was visualized herein through staining with fluorescein resulting from hydrolysis of fluorescein diacetate (FDA). All 7 wild-type enzymes are trimers of about the same height on the native gel, whereas the V263D mutants show bands on the lower third of the gel. Multiple bands were excised and analyzed on an SDS-PAGE gel. Multiple bands result in one clear band at the size of about 58 kDa (data not shown). It is assumed that these bands result from different conformations of the same monomer.
row,Protein,binding result
1,B1,no binding
2,B2,no binding
3,B3,no binding
4,B4,no binding
5,B5,no binding
6,B6,no binding
7,B7,no binding

# Molecular target: the molecule itself
# Assay: blue native gel electrophoresis, self-association (homotrimer)
# Procedure: Blue native gel electrophoresis (BN-PAGE) of bacterial lysates containing APLE was performed according to the method described by Reisinger and Eichacker (2006), “Analysis of membrane protein complexes by blue native PAGE”, Proteomics 6 Suppl 2, 6-15, with the following modifications. Aliquots containing 200 μg of soluble proteins were diluted with 10 mM Tris/HCl pH 7.4 to a final volume of 95 μl. Five μl of loading buffer was added to the sample before applying them on an 8-16% linear gradient gel. Gradient gels (16×20 cm) were created with the help of a Bio-Rad Gradient Former model 485 (Bio-Rad Laboratories, Vienna, Austria). Electrophoresis was performed at a constant current of 24 mA per gel at 4° C. After electrophoresis, gels were incubated in 0.1 M potassium phosphate buffer, pH 7.0, for 20 min at room temperature. For the in-gel-detection of esterase activity, the substrate fluorescein diacetate (FDA) was dissolved in acetone [4 mg/ml] and applied on a Biodyne® A membrane ([…], 16×20 cm) (Pall Life Science, Michigan, USA). After evaporation of acetone, the membrane was brought in close contact with the gel which was placed on a glass plate. […]
# Esterase activity was visualized herein through staining with fluorescein resulting from hydrolysis of fluorescein diacetate (FDA). […] Multiple bands were excised and analyzed on an SDS-PAGE gel. […]
row,Protein,binding result
1,B8,binds
2,B9,binds

# Molecular target: the molecule itself
# Assay: method not named, self-association
row,Protein,binding result
1,B10,no binding

# Reference: US20120100582A1 (DSM IP ASSETS B V, published 2012)
